We go through one substance from publication PMC11963547.

One may read the stoichiometry N as a count of units in the complex or per binding partner.

In the assay the target is penicillin-binding protein 2a (S. aureus (endogenous in strain USA300)). The assay can be described thus: cross-linking + native gel or EMSA. For orientation: In EMSA bound probe runs differently from free probe, usually more slowly.

Regarding “penicillin-binding protein 2a (natural protein)”, the stoichiometry N was determined as 3.
